Test results reported in paper PMC12881670, “Investigation into ligand selectivity and bias at the formyl peptide receptor family” (The Journal of Pharmacology and Experimental Therapeutics, 2025).
Values belong to the molecule of their own block, whether it stands above or below them. Where no end group is shown, it is not given here. [ ]: non-standard residue; d: D form.

How the values were obtained:
[1] = test system: FPR1; details: at 100 nM; cited from earlier work
[2] = biological target: T1, FLAG-tagged mouse Fpr1 (Mm_Fpr1) (mouse, UniProt P33766 1-364); assay: cell-based or functional assay
T1 sequence (looked up): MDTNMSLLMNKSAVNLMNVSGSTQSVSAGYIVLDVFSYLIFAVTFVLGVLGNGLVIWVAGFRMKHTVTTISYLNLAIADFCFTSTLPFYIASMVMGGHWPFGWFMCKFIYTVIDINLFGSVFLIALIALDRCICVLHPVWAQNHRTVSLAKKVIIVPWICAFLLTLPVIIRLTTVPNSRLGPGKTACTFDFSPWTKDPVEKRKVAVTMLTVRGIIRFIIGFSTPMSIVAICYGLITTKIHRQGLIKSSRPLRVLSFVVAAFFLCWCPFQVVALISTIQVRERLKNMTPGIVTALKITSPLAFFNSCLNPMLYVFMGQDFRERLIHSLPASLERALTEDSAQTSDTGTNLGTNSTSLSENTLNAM

[3] = biological target: T2, FLAG-tagged mouse Fpr2 (Mm_Fpr2) (mouse, UniProt O88536 1-351); assay: cell-based or functional assay
T2 sequence (looked up): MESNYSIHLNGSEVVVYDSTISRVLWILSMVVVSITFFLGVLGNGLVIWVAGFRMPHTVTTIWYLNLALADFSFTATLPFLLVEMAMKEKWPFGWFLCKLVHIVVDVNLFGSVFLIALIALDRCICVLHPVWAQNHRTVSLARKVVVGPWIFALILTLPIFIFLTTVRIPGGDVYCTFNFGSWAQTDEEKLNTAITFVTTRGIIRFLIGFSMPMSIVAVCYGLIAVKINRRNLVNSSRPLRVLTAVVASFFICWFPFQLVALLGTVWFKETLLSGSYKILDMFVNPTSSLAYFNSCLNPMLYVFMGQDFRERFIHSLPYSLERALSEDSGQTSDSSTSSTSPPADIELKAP

[4] = biological target: T3, FLAG-tagged human FPR2 (Hs_FPR2) (human, UniProt P25090 1-351); assay: cell-based or functional assay
T3 sequence (looked up): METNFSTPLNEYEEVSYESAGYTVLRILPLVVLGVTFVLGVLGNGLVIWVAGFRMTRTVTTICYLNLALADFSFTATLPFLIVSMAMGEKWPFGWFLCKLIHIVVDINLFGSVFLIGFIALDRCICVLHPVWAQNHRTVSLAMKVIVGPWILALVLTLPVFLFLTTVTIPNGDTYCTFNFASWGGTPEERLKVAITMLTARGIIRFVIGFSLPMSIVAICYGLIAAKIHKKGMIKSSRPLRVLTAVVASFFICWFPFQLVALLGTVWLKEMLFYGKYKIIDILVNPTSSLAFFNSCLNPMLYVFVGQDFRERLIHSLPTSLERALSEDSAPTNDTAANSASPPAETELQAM

[5] = biological target: T4, FLAG-tagged human FPR1 (Hs_FPR1) (human, UniProt P21462 1-350); assay: cell-based or functional assay
T4 sequence (looked up): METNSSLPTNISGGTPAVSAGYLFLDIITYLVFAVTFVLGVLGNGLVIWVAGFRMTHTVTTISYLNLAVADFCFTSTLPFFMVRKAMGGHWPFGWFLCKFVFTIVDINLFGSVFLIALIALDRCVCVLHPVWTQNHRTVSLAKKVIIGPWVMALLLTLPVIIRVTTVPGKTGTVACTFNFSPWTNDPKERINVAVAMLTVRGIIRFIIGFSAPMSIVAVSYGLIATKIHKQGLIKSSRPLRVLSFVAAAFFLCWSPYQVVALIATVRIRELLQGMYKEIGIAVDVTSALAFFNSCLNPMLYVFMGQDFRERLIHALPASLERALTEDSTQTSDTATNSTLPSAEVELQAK

[6] = biological target: T5, FLAG-Hs_FPR1 C-terminally fused to Renilla Luciferase 8 (human, UniProt P21462 1-350); assay: cell-based or functional assay
T5 sequence (looked up): T4 sequence (looked up)

[7] = biological target: T6, FLAG-Hs_FPR2 C-terminally fused to Renilla Luciferase 8 (human, UniProt P25090 1-351); assay: cell-based or functional assay
T6 sequence (looked up): T3 sequence (looked up)

Molecule: Cc1cccc(-c2oc(C)nc2C(=O)Nc2cnn(Cc3nc(C(C)(F)F)co3)n2)c1 [ACT-389949]
arrestin recruitment to FPR1, Pathhunter [1]: neither WKYMVM nor ACT-389949 resulted in recruitment

receptor internalization (flow cytometry): Emax (% of 1 μM WKYMVm) [2]: 108% | receptor internalization (flow cytometry): Log EC50 (M) [2]: -8.01 log M | receptor internalization (flow cytometry): Emax (% of 1 μM WKYMVm) [3]: 102% | receptor internalization (flow cytometry): Log EC50 (M) [3]: -7.66 log M | receptor internalization (flow cytometry): Emax (% of 1 μM WKYMVm) [4]: 97.5% | receptor internalization (flow cytometry): Log EC50 (M) [4]: -8 log M | receptor internalization (flow cytometry): Emax (% of 1 μM WKYMVm) [5]: 106% | receptor internalization (flow cytometry): Log EC50 (M) [5]: -7.49 log M | BRET of receptor-RLuc8 with Venus-mGsi: Emax (% of 1 μM WKYMVm) [6]: 112% | BRET of receptor-RLuc8 with Venus-mGsi: Emax (% of 1 μM WKYMVm) [7]: 100% | BRET of receptor-RLuc8 with Venus-mGsi: Log EC50 (M) [7]: -8.11 log M
B1: WKYMVm (peptide)
peptide: WKYMV[dM]
notes: the last residue is the D form; the bought peptide is probably also an amide (surmise); source: bought: Tocris
